Laboratory results: the supplement of paper PMC11316812
± gives the standard deviation of the averaged measurements.

Legend:
MCF7 = assay: percentage of EdU-negative (G0-arrested) nuclei per well, 72 h; higher = more G0 arrest; settings: reference: sequence is the full UniProt precursor, the tested protein was the secreted form or ectodomain
hTERT-HMEC = assay: as above; settings: reference: sequence is the full UniProt precursor, the tested protein was the secreted form or ectodomain
[1] = protein concentration 0.0225 µM
[2] = protein concentration 0.0115 µM
[3] = protein concentration 0.0357143 µM
[4] = protein concentration 0.357143 µM
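Also: secreted proteins added to cultured cells, EdU pulse at the end, nuclei found by Hoechst imaging, EdU status from nuclear versus surrounding ring intensity ratio, PBS as neutral control.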

Sequence | percentage of EdU-negative (MCF7; [1]) [%] | percentage of EdU-negative (MCF7; protein concentration 0.225 µM) [%] | percentage of EdU-negative (hTERT-HMEC; [1]) [%] | percentage of EdU-negative (hTERT-HMEC; protein concentration 0.225 µM) [%] | other results
MARFPKADLAAAGVMLLCHFFTDQFQFADGKPGDQILDWQYGVTQAFPHTEEEVEVDSHAYSHRWKRNLDFLKAVDTNRASVGQDSPEPRSFTDLLLDDGQDNNTQIEEDTDHNYYISRIYGPSDSASRDLWVNIDQMEKDKVKIHGILSNTHRQAARVNLSFDFPFYGHFLREITVATGGFIYTGEVVHRMLTATQYIAPLMANFDPSVSRNSTVRYFDNGTALVVQWDHVHLQDNYNLGSFTFQATLLMDGRIIFGYKEIPVLVTQISSTNHPVKVGLSDAFVVVHRIQQIPNVRRRTIYEYHRVELQMSKITNISAVEMTPLPTCLQFNRCGPCVSSQIGFNCSWCSKLQRCSSGFDRHRQDWVDSGCPEESKEKMCENTEPVETSSRTTTTVGATTTQFRVLTTTRRAVTSQFPTSLPTEDDTKIALHLKDNGASTDDSAAEKKGGTLHAGLIIGILILVLIVATAILVTVYMYHHPTSAASIFFIERRPSRWPAMKFRRGSGHPAYAEVEPVGEKEGFIVSEQC [Q6UX71] | 27.4 ± 2.7 | 26.561 ± 0.011 | 4.63 ± 0.96 | 7.25 ± 1.4 | –
MARFWVCVAGAGFFLAFLVLHSRFCGSPVLRNFTFAVSWRTEKILYRLDVGWPKHPEYFTGTTFCVAVDSLNGLVYIGQRGDNIPKILVFTEDGYFLRAWNYTVDTPHGIFAASTLYEQSVWITDVGSGFFGHTVKKYSSFGDLVQVLGTPGKKGTSLNPLQFDNPAELYVEDTGDIYIVDGDGGLNNRLIKLSQDFMILWLHGENGTGPAKFNIPHSVTLDSAGRVWVADRGNKRIQVFDKDTGEWLGAWNNCFTEEGPSSVRFTPDGKYLIVAQLNLSRLSVVAAPPVGSIGECSVISTIQLADQVLPHLLEVDRKTGAVYVAEIGAKQVQKYVPLNSYVPSFGS [Q5JS37] | – | – | – | – | percentage of EdU-negative (MCF7; [2]): 26.8 ± 0.58%; percentage of EdU-negative (MCF7; protein concentration 0.115 µM): 29.3 ± 1.4%; percentage of EdU-negative (hTERT-HMEC; [2]): 4.82 ± 0.15%; percentage of EdU-negative (hTERT-HMEC; protein concentration 0.115 µM): 16.1 ± 0.13%
MARGGRGRRLGLALGLLLALVLAPRVLRAKPTVRKERVVRPDSELGERPPEDNQSFQYDHEAFLGKEDSKTFDQLTPDESKERLGKIVDRIDNDGDGFVTTEELKTWIKRVQKRYIFDNVAKVWKDYDRDKDDKISWEEYKQATYGYYLGNPAEFHDSSDHHTFKKMLPRDERRFKAADLNGDLTATREEFTAFLHPEEFEHMKEIVVLETLEDIDKNGDGFVDQDEYIADMFSHEENGPEPDWVLSEREQFNEFRDLNKDGKLDKDEIRHWILPQDYDHAQAEARHLVYESDKNKDEKLTKEEILENWNMFVGSQATNYGEDLTKNHDEL | 22.7 ± 0.8 | 25.5 ± 0.44 | 4.56 ± 0.49 | 6.14 ± 0.11 | –
MARGSAVAWAALGPLLWGCALGLQGGMLYPQESPSRECKELDGLWSFRADFSDNRRRGFEEQWYRRPLWESGPTVDMPVPSSFNDISQDWRLRHFVGWVWYEREVILPERWTQDLRTRVVLRIGSAHSYAIVWVNGVDTLEHEGGYLPFEADISNLVQVGPLPSRLRITIAINNTLTPTTLPPGTIQYLTDTSKYPKGYFVQNTYFDFFNYAGLQRSVLLYTTPTTYIDDITVTTSVEQDSGLVNYQISVKGSNLFKLEVRLLDAENKVVANGTGTQGQLKVPGVSLWWPYLMHERPAYLYSLEVQLTAQTSLGPVSDFYTLPVGIRTVAVTKSQFLINGKPFYFHGVNKHEDADIRGKGFDWPLLVKDFNLLRWLGANAFRTSHYPYAEEVMQMCDRYGIVVIDECPGVGLALPQFFNNVSLHHHMQVMEEVVRRDKNHPAVVMWSVANEPASHLESAGYYLKMVIAHTKSLDPSRPVTFVSNSNYAADKGAPYVDVICLNSYYSWYHDYGHLELIQLQLATQFENWYKKYQKPIIQSEYGAETIAGFHQDPPLMFTEEYQKSLLEQYHLGLDQKRRKYVVGELIWNFADFMTEQSPTRVLGNKKGIFTRQRQPKSAAFLLRERYWKIANETRYPHSVAKSQCLENSLFT | 24.2 ± 0.95 | 23.4 ± 1.8 | 5.26 ± 0.26 | 5.74 ± 0.95 | –
MARILLLFLPGLVAVCAVHGIFMDRLASKKLCADDECVYTISLASAQEDYNAPDCRFINVKKGQQIYVYSKLVKENGAGEFWAGSVYGDGQDEMGVVGYFPRNLVKEQRVYQEATKEVPTTDIDFFCE [Q9NRC9] | – | – | – | – | percentage of EdU-negative (MCF7; [3]): 24.18 ± 0.24%; percentage of EdU-negative (MCF7; [4]): 27 ± 3.7%; percentage of EdU-negative (hTERT-HMEC; [3]): 5.05 ± 0.39%; percentage of EdU-negative (hTERT-HMEC; [4]): 5.74 ± 0.68%
MARLALSPVPSHWMVALLLLLSAEPVPAARSEDRYRNPKGSACSRIWQSPRFIARKRGFTVKMHCYMNSASGNVSWLWKQEMDENPQQLKLEKGRMEESQNESLATLTIQGIRFEDNGIYFCQQKCNNTSEVYQGCGTELRVMGFSTLAQLKQRNTLKDGIIMIQTLLIILFIIVPIFLLLDKDDSKAGMEEDHTYEGLDIDQTATYEDIVTLRTGEVKWSVGEHPGQE | 25.5 ± 0.14 | 26.8 ± 0.87 | 5.71 ± 0.54 | 8.95 ± 0.22 | –
